Data on two molecules can be found in article PMC10248732.

Read-outs that look alike come from different tables or passages of the source.

The target of data set [1] is T1, GST-OsLUX (Oryza sativa, UniProt Q94DH3 1-238).
T1 sequence: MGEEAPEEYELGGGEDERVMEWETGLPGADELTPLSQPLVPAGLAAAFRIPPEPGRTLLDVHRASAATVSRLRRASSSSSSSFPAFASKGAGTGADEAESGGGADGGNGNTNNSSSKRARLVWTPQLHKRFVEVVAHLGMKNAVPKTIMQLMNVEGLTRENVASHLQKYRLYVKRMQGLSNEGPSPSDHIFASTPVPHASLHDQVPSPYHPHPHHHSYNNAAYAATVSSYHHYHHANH
Briefly: EMSA. A general note: A gel shift assay detects complexes by their altered migration in electrophoresis.

Data set [2] addresses T1, GST-OsLUX. The experiment in a line: EMSA. The source holds these as a separate data set.

B1: Hd1-P (S4 LBS, 3 copies) (dsDNA)
DNA 1: CGCTGGATTCGACTTGCGCTGGATTCGACTTGCGCTGGATTCGACTTG
DNA 2: CAAGTCGAATCCAGCGCAAGTCGAATCCAGCGCAAGTCGAATCCAGCG
Consider B1, for which, in the data set with GST-OsLUX [1], the binding result is “binds”.

B2: Ghd7-P (LBS, 3 copies) (dsDNA)
DNA 1: CAGCACGAATCTTGAGCAGCACGAATCTTGAGCAGCACGAATCTTGAG
DNA 2: CTCAAGATTCGTGCTGCTCAAGATTCGTGCTGCTCAAGATTCGTGCTG
Take B2: the binding result in the data set with GST-OsLUX [2] is on record as “binds”.
